Test results: US20240116987A1, “POLYPEPTIDE INHIBITORS OF LACTATE DEHYDROGENASE ACTIVITY FOR USE IN CANCER THERAPY” (UNIVERSITÉ CATHOLIQUE DE LOUVAIN, priority 2021, published 2024)

Tests used:
[1] = Chemical denaturation with guanidinium-HCl followed by intrinsic fluorescence; assay type: physicochemical, human; conditions: protein 1.3 μM, means ± SEM, n=6
Experimental: (§1) All spectrophotometric experiments were performed with opaque 96-well plates using a Spectramax m2e spectrophotometer (Molecular Devices) following previously described in Thabault et al. (see above).
(§2) Intrinsic fluorescence assays: full tryptophan fluorescence spectra were recorded using an excitation wavelength of 286 nm and recording the emission spectra from 320 to 400 nm at room temperature. The raw fluorescence of each experiment was subtracted to a corresponding control experiment without the protein. Experiments were performed in a 50 mM sodium phosphate and 100 mM NaCl, pH 7.6, buffer. For dissociation in subunits, increasing amounts of guanidinium-HCl ranging from 0.3 M to 2 M were put in contact with the studied proteins (1.3 μM), and fluorescence spectra were recorded afterwards.

[2] = NanoDSF thermal denaturation of LDH-H variants; assay type: physicochemical, human; conditions: for Ratio 350/330 nm (initial): nanoDSF fluorescence ratio; for Tm: means ± SEM, n=6
Experimental: NanoDSF was performed following previously described by Thabault et al. (see above). • a) Variant evaluation
Solutions of proteins (LDH-H, LDH-Htr, or variants), stored in a 50 mM sodium phosphate, 100 mM NaCl and 20% glycerol, pH 7.6, were evaluated on a Tycho NT.6 device (NanoTemper Technologies®) using concentrations […]. According to standard manufacturer's procedures, samples were poured into capillaries and heated up to 95° C. in 3 min, while following fluorescence emission at 330 and 350 nm. Melting temperatures were extracted from the derivative of the 350/330 nm fluorescence ratios upon increasing temperature. • b) Peptide evaluation

[3] = Intrinsic tryptophan fluorescence spectra; assay type: physicochemical, human; conditions: 1.3 μM, λexc 286 nm, n=6
Experimental: as §1, §2

[4] = biological target: T1, dimeric LDH-Htr (Homo sapiens, UniProt P07195); experiment: NMR WaterLOGSY with dimeric LDH-Htr; assay type: binding; conditions: LDH-Htr 15 μM, LP-22 400 μM
T1 construct: using the model of dimeric LDH (LDH-Htr); made in house; host or cells: E. coli Rosetta (DE3)
T1 sequence (P07195 21-334): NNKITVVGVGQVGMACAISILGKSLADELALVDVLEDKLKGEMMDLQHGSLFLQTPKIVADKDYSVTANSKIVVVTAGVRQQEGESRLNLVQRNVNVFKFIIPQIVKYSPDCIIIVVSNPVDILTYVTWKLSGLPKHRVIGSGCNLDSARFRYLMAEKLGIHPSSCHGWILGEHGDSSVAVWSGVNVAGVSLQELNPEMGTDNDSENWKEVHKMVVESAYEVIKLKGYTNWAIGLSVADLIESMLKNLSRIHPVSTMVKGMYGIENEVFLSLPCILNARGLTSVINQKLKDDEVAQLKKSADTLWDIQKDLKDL
Experimental: Human LDH-H (full length and truncated)-6His proteins for ^1D NMR were expressed and purified from E. coli, as described above. All experiments were performed on an […] system equipped with a broadband cryoprobe (Bruker®) following a previously described in Thabault et al. (see above).
For WaterLOGSY NMR studies, samples were prepared in 10% D2O containing 50 mM sodium phosphate buffer, pH 7.6, and 100 mM NaCl. The concentration of LDHs was ranging from 15 to 20 μM of monomer. Ligand binding was detected using a WaterLOGSY ephogsygpno.2 avance-version sequence with a 1 s mixing time. Water signal suppression was achieved using an excitation-sculpting scheme, and a 50 ms spinlock was used to suppress protein background signals.

[5] = biological target: tetrameric LDH-5 (Homo sapiens, UniProt P00338); experiment: NanoDSF thermal destabilization of tetrameric LDH-5 by peptide; assay type: binding
Experimental: (§3) NanoDSF was performed following previously described by Thabault et al. (see above). • a) Variant evaluation Solutions of proteins (LDH-1, LDH-5 or LDH-Htr) with peptides were evaluated on a Tycho NT.6 device (NanoTemper Technologies®). Evaluations were performed in a 50 mM sodium phosphate and 100 mM NaCl pH 7.6 buffer. According to standard manufacturer's procedures, samples were poured into capillaries and treated as above.

[6] = biological target: T2, LDH-Htr (Homo sapiens, UniProt P07195); experiment: Microscale thermophoresis (MST) binding to labelled LDH-Htr; conditions: 1.5 s MST on time, n=3, labelled LDH-Htr 100 nM
T2 construct: using the model of dimeric LDH (LDH-Htr); made in house; host or cells: E. coli Rosetta (DE3)
T2 sequence (P07195 21-334): as above
Experimental: MST measurements were performed on a Nanotemper® Monolith NT.115 instrument (NanoTemper Technologies®) using Red-dye-NHS fluorescent labelling. LDH-Htr purified to homogeneity was labelled with the Monolith Red-dye-NHS 2nd generation labelling dye (Nanotemper Technologies®), according to the supplied protocol. Measurements were performed in 50 mM sodium phosphate, pH 7.6, and 100 mM NaCl containing 0.01% Tween-20 in standard-treated capillaries (NanoTemper Technologies®). The final concentration of proteins in the assay was 100 nM. Ligands were titrated in 1:1 dilutions following manufacturer's recommendations. Experiments were performed in triplicates using 40% LED power, high MST power, […] and Laser off time 3 s. Poypeptides were evaluated for their thermophoretic pattern, and Kd's were extracted from raw data at a 1.5 s MST on time following the manufacturer's instructions.

[7] = biological target: T1, dimeric LDH-Htr; experiment: NanoDSF thermal shift of dimeric LDH-Htr with peptide; assay type: binding; conditions: LDH-Htr 15 μM, polypeptide 500 μM, n=3
Experimental: as §3

Row | Compound | EC50 [1] [µM] | NanoDSF denaturation pattern [2] | Ratio 350/330 nm (initial) [2] | Tm ([2]; nanoDSF) [°C] | Tryptophan fluorescence intensity compared with LDH-1 [3] | WaterLOGSY saturation transfer with dimeric LDH-Htr [4] | Destabilizing effect on LDH-5 compared to LDH-1 ([5]; nanoDSF, tetrameric LDH-5 vs LDH-1) | Kd [6] [µM] | ΔTm of dimeric LDH-Htr (stabilization) [7] [°C] | EC50 ([5]; LDH-5 300 nM, n=3, read-out: EC50 of ΔTm (destabilization) of tetrameric LDH-5) [µM] | Tm difference versus LDH-Htr ([2]; nanoDSF) [°C]
1 | F72A: LDH-H recombinant alanine variant F72A of SEQ ID NO: 2 | < 100000 | denaturation patterns comparable to dimeric LDH-Htr | 0.94 | 53.9 ± 0.1 | decays in fluorescence intensity characteristic of the dimeric forms of LDHs | – | – | – | – | – | –
2 | LDH-Htr: dimeric model of LDH-H obtained by truncating its N-terminal tetramerization domain [reference compound] | < 100000 | concentration-dependent destabilization | 0.87 | 57.5 ± 0.1 | – | – | – | – | – | – | –
3 | CSCC[C@H](NC(=O)[C@H](CCC(=O)O)NC(=O)CNC(=O)[C@H](CCCCN)NC(=O)[C@H](CC(C)C)NC(=O)[C@H](CCCCN)NC(=O)[C@H](CC(=O)O)NC(=O)[C@H](CCC(=O)O)NC(=O)[C@@H](N)CC(C)C)C(=O)N[C@@H](CCSC)C(=O)N[C@@H](CC(=O)O)C(=O)N[C@@H](CC(C)C)C(=O)N[C@@H](CCC(N)=O)C(=O)N[C@@H](Cc1c[nH]cn1)C(=O)NCC(=O)N[C@@H](CO)C(=O)N[C@@H](CC(C)C)C(=O)N[C@@H](Cc1ccccc1)C(=O)N[C@@H](CC(C)C)C(=O)N[C@@H](CCC(N)=O)C(=O)N[C@H](C(=O)N1CCC[C@H]1C(N)=O)[C@@H](C)O [LP-22] | – | – | – | – | – | undergoes a saturation transfer | higher destabilizing effect | 156 | 2.8 | – | –
4 | Ac-GEMMDLQHGSLFLQTP-NH2 [GP-16] | – | – | – | – | – | – | – | 240 | – | 262 | –
5 | E62A: LDH-H recombinant alanine variant E62A of SEQ ID NO: 2 | < 100000 | denaturation patterns comparable to dimeric LDH-Htr | 0.95 | 58.9 ± 0.1 | decays in fluorescence intensity characteristic of the dimeric forms of LDHs | – | – | – | – | – | –
6 | L71A: LDH-H recombinant alanine variant L71A of SEQ ID NO: 2 | < 100000 | a lower initial ratio and a red-shift | 0.90 | 67.1 ± 0.1 | not L71A | – | – | – | – | – | 10
